Data taken from patent US11325966.

Assays:
Test in all cases: cell-based or functional assay
[1] = target: HIV-1 Env of pseudovirus ZM247v1(Rev-) (HIV-1)
92BR020 N386A (HIV-1) = target: 92BR020 N386A (HIV-1)
92BR020 N156A (HIV-1) = target: 92BR020 N156A (HIV-1)
92BR020 (HIV-1) = target: 92BR020 (HIV-1)
[2] = target: 92BR020 N136A + N332A (HIV-1)
[3] = target: 92BR020 N301A + N332A (HIV-1)
92BR020 I326A (HIV-1) = target: 92BR020 I326A (HIV-1)
[4] = target: 92BR020 N156A + N332A (HIV-1)
JR-CSF D325A (HIV-1) = JR-CSF D325A (HIV-1) (UniProt P20871)
[5] = target: HIV-1 Env of pseudovirus C3347.c11 (HIV-1)
JR-CSF N332A (HIV-1) = JR-CSF N332A (HIV-1) (UniProt P20871)
JR-CSF N386A (HIV-1) = JR-CSF N386A (HIV-1) (UniProt P20871)
92BR020 N392A (HIV-1) = target: 92BR020 N392A (HIV-1)
92BR020 R327A (HIV-1) = target: 92BR020 R327A (HIV-1)
JR-CSF H33OA (HIV-1) = JR-CSF H33OA (HIV-1) (UniProt P20871)
92BR020 N136A (HIV-1) = target: 92BR020 N136A (HIV-1)
[6] = target: BG505 (T332N) N156A (HIV-1)
JR-CSF Q328A (HIV-1) = JR-CSF Q328A (HIV-1) (UniProt P20871)
[7] = target: BG505 (T332N) N137A (HIV-1)
[8] = target: HIV-1 Env of pseudovirus 1394C9G1(Rev-) (HIV-1)
92BR020 N301A (HIV-1) = target: 92BR020 N301A (HIV-1)
92BR020 N332A (HIV-1) = target: 92BR020 N332A (HIV-1)
[9] = target: BG505 (T332N) N392A (HIV-1)
92BR020 Q328A (HIV-1) = target: 92BR020 Q328A (HIV-1)
[10] = target: HIV-1 Env of pseudovirus ZM135M.PL10a (HIV-1)
[11] = target: HIV-1 Env of pseudovirus R1166.c01 (HIV-1)
[12] = target: HIV-1 Env of pseudovirus T255-34 (HIV-1)
[13] = target: HIV-1 Env of pseudovirus Du156.12 (HIV-1)
[14] = target: HIV-1 Env of pseudovirus WITO4160.33 (HIV-1)
[15] = target: HIV-1 Env of pseudovirus BJOX015000.11.5 (HIV-1)
[16] = target: HIV-1 Env of pseudovirus 1012_11_TC21_3257 (HIV-1)
[17] = target: HIV-1 Env of pseudovirus SC422661.8 (HIV-1)
[18] = target: HIV-1 Env of pseudovirus Ce1176_A3 (HIV-1)
[19] = target: HIV-1 Env of pseudovirus MS208.A1 (HIV-1)
[20] = target: HIV-1 Env of pseudovirus 3301.v1.c24 (HIV-1)
[21] = target: HIV-1 Env of pseudovirus C2101.c01 (HIV-1)
[22] = target: HIV-1 Env of pseudovirus 191821_E6_1 (HIV-1)
[23] = target: HIV-1 Env of pseudovirus 6952.v1.c20 (HIV-1)
[24] = target: HIV-1 Env of pseudovirus ZM135M.PE10a (HIV-1)
[25] = target: HIV-1 Env of pseudovirus 3817.v2.c59 (HIV-1)
[26] = target: HIV-1 Env of pseudovirus 1056_10_TA11_1826 (HIV-1)
[27] = target: HIV-1 Env of pseudovirus X2088_c9 (HIV-1)
[28] = target: HIV-1 Env of pseudovirus CNE30 (HIV-1)
[29] = target: HIV-1 Env of pseudovirus BJOX028000.10.3 (HIV-1)
[30] = target: HIV-1 Env of pseudovirus X1254_c3 (HIV-1)
[31] = target: HIV-1 Env of pseudovirus C1080.c03 (HIV-1)

Work on 354BG8 (antibody) yielded an IC50 in TZM-bl assay [1] of 0.042 µg/mL, an IC80 in TZM-bl assay [1] of 0.146 µg/mL and an IC50 in TZM-bl assay (92BR020 N386A (HIV-1)) of 0.012 µg/mL. The IC50 in TZM-bl assay (92BR020 N156A (HIV-1)) was 0.011 µg/mL, the IC50 in TZM-bl assay (92BR020 (HIV-1)) was 0.015 µg/mL and the IC50 in TZM-bl assay [2] was over 50 µg/mL. For the same molecule, the IC50 in TZM-bl assay [3] was over 50 µg/mL, the IC50 in TZM-bl assay (92BR020 I326A (HIV-1)) was 0.006 µg/mL and the IC50 in TZM-bl assay [4] was over 50 µg/mL. For the same molecule, the IC50 in TZM-bl assay (JR-CSF D325A (HIV-1)) was 0.005 µg/mL, the IC50 in TZM-bl assay [5] was over 10 µg/mL and the IC80 in TZM-bl assay [5] was over 10 µg/mL. It also gave an IC50 in TZM-bl assay (JR-CSF N332A (HIV-1)) of over 50 µg/mL, an IC50 in TZM-bl assay (JR-CSF N386A (HIV-1)) of 0.012 µg/mL and an IC50 in TZM-bl assay (92BR020 N392A (HIV-1)) of 0.023 µg/mL. For the same molecule, the IC50 in TZM-bl assay (92BR020 R327A (HIV-1)) was 0.011 µg/mL, the IC50 in TZM-bl assay (JR-CSF H33OA (HIV-1)) was 0.05 µg/mL and the IC50 in TZM-bl assay (92BR020 N136A (HIV-1)) was 0.005 µg/mL. It also gave an IC50 in TZM-bl assay [6] of 0.008 µg/mL, an IC50 in TZM-bl assay (JR-CSF Q328A (HIV-1)) of 0.023 µg/mL and an IC50 in TZM-bl assay [7] of 0.003 µg/mL. The IC50 in TZM-bl assay [8] was 0.031 µg/mL, the IC80 in TZM-bl assay [8] was 0.093 µg/mL and the IC50 in TZM-bl assay (92BR020 N301A (HIV-1)) was 0.009 µg/mL. The IC50 in TZM-bl assay (92BR020 N332A (HIV-1)) was over 50 µg/mL, the IC50 in TZM-bl assay [9] was 0.005 µg/mL and the IC50 in TZM-bl assay (92BR020 Q328A (HIV-1)) was 0.018 µg/mL.

In the case of BG18 IgG (354BG18) (antibody), the IC50 in TZM-bl assay [5] is reported as over 30 µg/mL, the IC80 in TZM-bl assay [5] is reported as over 30 µg/mL and the IC50 in TZM-bl assay [10] is reported as 0.029 µg/mL. For the same molecule, the IC80 in TZM-bl assay [10] was 0.161 µg/mL.

Molecule PGT121 (antibody) has an IC50 in TZM-bl assay [1] of 0.036 µg/mL, an IC80 in TZM-bl assay [1] of 0.123 µg/mL and an IC50 in TZM-bl assay (92BR020 N386A (HIV-1)) of 0.006 µg/mL. It also gave an IC50 in TZM-bl assay (92BR020 N156A (HIV-1)) of 0.003 µg/mL, an IC50 in TZM-bl assay (92BR020 (HIV-1)) of 0.004 µg/mL and an IC50 in TZM-bl assay [2] of over 1 µg/mL. It also gave an IC50 in TZM-bl assay [3] of over 1 µg/mL, an IC50 in TZM-bl assay (92BR020 I326A (HIV-1)) of 0.002 µg/mL and an IC50 in TZM-bl assay [4] of over 1 µg/mL. For the same molecule, the IC50 in TZM-bl assay (JR-CSF D325A (HIV-1)) was 0.079 µg/mL, the IC50 in TZM-bl assay (JR-CSF N332A (HIV-1)) was over 50 µg/mL and the IC50 in TZM-bl assay (JR-CSF N386A (HIV-1)) was 0.024 µg/mL. It also gave an IC50 in TZM-bl assay (92BR020 N392A (HIV-1)) of 0.007 µg/mL, an IC50 in TZM-bl assay (92BR020 R327A (HIV-1)) of 0.001 µg/mL and an IC50 in TZM-bl assay (JR-CSF H33OA (HIV-1)) of 0.017 µg/mL. It also gave an IC50 in TZM-bl assay (92BR020 N136A (HIV-1)) of 0.002 µg/mL, an IC50 in TZM-bl assay [6] of 0.007 µg/mL and an IC50 in TZM-bl assay (JR-CSF Q328A (HIV-1)) of 0.057 µg/mL. For the same molecule, the IC50 in TZM-bl assay [10] was 0.73 µg/mL, the IC80 in TZM-bl assay [10] was 5.73 µg/mL and the IC50 in TZM-bl assay [7] was 0.002 µg/mL. It also gave an IC50 in TZM-bl assay [8] of 0.823 µg/mL, an IC80 in TZM-bl assay [8] of 6.23 µg/mL and an IC50 in TZM-bl assay (92BR020 N301A (HIV-1)) of 0.003 µg/mL. For the same molecule, the IC50 in TZM-bl assay (92BR020 N332A (HIV-1)) was 0.08 µg/mL, the IC50 in TZM-bl assay [9] was 0.006 µg/mL and the IC50 in TZM-bl assay (92BR020 Q328A (HIV-1)) was 0.002 µg/mL.

B1: 10-1074 (antibody, V domains shown)
VH: QVQLQESGPGLVKPSETLSVTCSVSGDSMNNYYWTWIRQSPGKGLEWIGYISDRESATYNPSLNSRVVISRDTSKNQLSLKLNSVTPADTAVYYCATARRGQRIYGVVSFGEFFYYYSMDVWGKGTTVTVSS
VL: SYVRPLSVALGETARISCGRQALGSRAVQWYQHRPGQAPILLIYNNQDRPSGIPERFSGTPDINFGTRATLTISGVEAGDEADYYCHMWDSRSGFSWSFGGATRLTVL
B1 gave an IC50 in TZM-bl assay [11] of over 10 µg/mL, an IC80 in TZM-bl assay [11] of over 10 µg/mL and an IC50 in TZM-bl assay [12] of over 10 µg/mL. The IC80 in TZM-bl assay [12] was over 10 µg/mL, the IC50 in TZM-bl assay [13] was 0.01 µg/mL and the IC80 in TZM-bl assay [13] was 0.036 µg/mL. For the same molecule, the IC50 in TZM-bl assay [14] was 0.111 µg/mL, the IC80 in TZM-bl assay [14] was 0.828 µg/mL and the IC50 in TZM-bl assay [15] was over 10 µg/mL. It also gave an IC80 in TZM-bl assay [15] of over 10 µg/mL, an IC50 in TZM-bl assay [16] of 0.011 µg/mL and an IC80 in TZM-bl assay [16] of 0.047 µg/mL. The IC50 in TZM-bl assay [17] was 0.058 µg/mL, the IC80 in TZM-bl assay [17] was 0.368 µg/mL and the IC50 in TZM-bl assay [18] was 0.022 µg/mL. For the same molecule, the IC80 in TZM-bl assay [18] was 0.07 µg/mL, the IC50 in TZM-bl assay [19] was over 10 µg/mL and the IC80 in TZM-bl assay [19] was over 10 µg/mL. For the same molecule, the IC50 in TZM-bl assay [20] was 0.018 µg/mL, the IC80 in TZM-bl assay [20] was 0.049 µg/mL and the IC50 in TZM-bl assay [21] was over 10 µg/mL. The IC80 in TZM-bl assay [21] was over 10 µg/mL, the IC50 in TZM-bl assay [22] was over 10 µg/mL and the IC80 in TZM-bl assay [22] was over 10 µg/mL. For the same molecule, the IC50 in TZM-bl assay [23] was 0.023 µg/mL, the IC80 in TZM-bl assay [23] was 0.086 µg/mL and the IC50 in TZM-bl assay [24] was 0.061 µg/mL. For the same molecule, the IC80 in TZM-bl assay [24] was 0.263 µg/mL, the IC50 in TZM-bl assay [25] was 0.706 µg/mL and the IC80 in TZM-bl assay [25] was 4.49 µg/mL. The IC50 in TZM-bl assay [26] was 0.038 µg/mL, the IC80 in TZM-bl assay [26] was 0.168 µg/mL and the IC50 in TZM-bl assay [27] was 0.003 µg/mL. The IC80 in TZM-bl assay [27] was 0.01 µg/mL, the IC50 in TZM-bl assay [28] was 0.261 µg/mL and the IC80 in TZM-bl assay [28] was 0.678 µg/mL. The IC50 in TZM-bl assay [29] was over 10 µg/mL, the IC80 in TZM-bl assay [29] was over 10 µg/mL and the IC50 in TZM-bl assay [30] was 0.063 µg/mL. For the same molecule, the IC80 in TZM-bl assay [30] was 0.239 µg/mL, the IC50 in TZM-bl assay [31] was over 10 µg/mL and the IC80 in TZM-bl assay [31] was over 10 µg/mL.
